Data published in patent US9415135B2, “Methods and compositions for stabilizing the myocardium” (The Regents of the University of California, priority 2002, dated 2016).

What was measured:
αvβ3 integrin = αvβ3 integrin (Homo sapiens, UniProt P05106+P06756); settings: high affinity; read-out: IC50, αvβ3 integrin binding; cited from earlier work
αvβ5 integrin = αvβ5 integrin (Homo sapiens, UniProt P06756+P18084); settings: low affinity; cited from earlier work
αIIBβ3 integrin = αIIBβ3 integrin (Homo sapiens, UniProt P05106+P08514); settings: low affinity; cited from earlier work
Chain of αIIBβ3 integrin (P08514 32-887 limits assumed): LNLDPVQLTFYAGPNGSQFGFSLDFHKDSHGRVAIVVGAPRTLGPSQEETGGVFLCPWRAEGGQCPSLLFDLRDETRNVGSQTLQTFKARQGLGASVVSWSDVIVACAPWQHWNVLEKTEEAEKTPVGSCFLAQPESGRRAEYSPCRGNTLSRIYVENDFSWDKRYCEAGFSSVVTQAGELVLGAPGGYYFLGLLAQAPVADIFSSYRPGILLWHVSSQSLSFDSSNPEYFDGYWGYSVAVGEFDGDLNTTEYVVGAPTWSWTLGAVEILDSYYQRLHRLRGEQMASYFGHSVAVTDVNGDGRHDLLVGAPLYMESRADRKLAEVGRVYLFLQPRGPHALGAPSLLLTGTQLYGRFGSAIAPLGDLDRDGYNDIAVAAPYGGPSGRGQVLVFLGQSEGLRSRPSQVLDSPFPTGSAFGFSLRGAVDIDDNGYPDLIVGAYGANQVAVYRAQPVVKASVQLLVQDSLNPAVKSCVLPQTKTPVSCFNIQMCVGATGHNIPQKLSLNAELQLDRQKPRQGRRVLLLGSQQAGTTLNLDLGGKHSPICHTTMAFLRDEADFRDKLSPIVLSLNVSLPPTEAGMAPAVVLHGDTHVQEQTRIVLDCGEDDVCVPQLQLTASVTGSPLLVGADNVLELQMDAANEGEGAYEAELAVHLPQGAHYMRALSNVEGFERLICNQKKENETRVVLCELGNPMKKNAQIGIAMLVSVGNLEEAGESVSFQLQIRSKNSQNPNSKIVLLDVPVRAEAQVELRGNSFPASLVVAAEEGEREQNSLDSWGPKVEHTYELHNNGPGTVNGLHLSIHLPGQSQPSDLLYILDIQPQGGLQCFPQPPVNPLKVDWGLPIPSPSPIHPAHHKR
Chain of αIIBβ3 integrin (P08514 891-1039 partner limits assumed): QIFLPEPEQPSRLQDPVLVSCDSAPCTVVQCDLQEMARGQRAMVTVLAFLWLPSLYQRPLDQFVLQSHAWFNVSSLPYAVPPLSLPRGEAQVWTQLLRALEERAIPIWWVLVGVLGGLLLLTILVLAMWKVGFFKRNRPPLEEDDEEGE
Chain of αIIBβ3 integrin (P05106 27-788): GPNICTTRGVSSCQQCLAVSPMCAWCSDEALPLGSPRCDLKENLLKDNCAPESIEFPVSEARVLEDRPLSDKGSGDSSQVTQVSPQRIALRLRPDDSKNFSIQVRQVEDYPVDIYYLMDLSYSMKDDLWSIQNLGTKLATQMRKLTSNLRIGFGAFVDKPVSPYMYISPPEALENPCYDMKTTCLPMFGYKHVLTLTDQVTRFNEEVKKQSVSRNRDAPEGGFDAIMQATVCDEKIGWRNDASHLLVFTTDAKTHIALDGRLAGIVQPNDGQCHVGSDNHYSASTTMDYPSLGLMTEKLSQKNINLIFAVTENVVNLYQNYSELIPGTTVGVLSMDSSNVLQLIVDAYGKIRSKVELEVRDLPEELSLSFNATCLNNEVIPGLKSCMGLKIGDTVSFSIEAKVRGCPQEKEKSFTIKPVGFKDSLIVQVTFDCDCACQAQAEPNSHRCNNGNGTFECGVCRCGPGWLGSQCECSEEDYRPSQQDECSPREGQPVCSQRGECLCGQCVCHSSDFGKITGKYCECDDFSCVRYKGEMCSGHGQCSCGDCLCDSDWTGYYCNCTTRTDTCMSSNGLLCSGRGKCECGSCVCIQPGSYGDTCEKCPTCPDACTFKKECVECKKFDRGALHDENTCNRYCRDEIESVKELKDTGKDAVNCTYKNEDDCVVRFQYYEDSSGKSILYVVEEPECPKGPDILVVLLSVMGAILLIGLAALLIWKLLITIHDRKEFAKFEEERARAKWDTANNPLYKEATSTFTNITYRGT

[1] = tested on: neural stem cells (NSCs) from adult hippocampus; test: NSC adhesion and proliferation on peptide-modified IPNs (CyQUANT); format: cell-based, rat
Procedure: Neural stem cells were isolated from the hippocampi of adult female Fischer 344 rats as previously described (Lai, K., et al., Nat Neurosci, 6(1):21-7 (2003)). Cells at (200-10,000 cells/well) were seeded onto peptide-modified IPNs and laminin-modified culture wells and incubated (37° C., 5% CO2) in serum-free media consisting of DMEM/Hams F-12 medium with N−2 supplement. These media conditions were supplemented with various soluble factors to modulate cell behavior: 20 ng·ml^−1 basic fibroblast growth factor (bFGF) for cell proliferation or 1 μM retinoic acid with 5 μM forskolin for neuronal differentiation. Wells were rinsed every 48 hrs with fresh media.
NSCs isolated from the adult hippocampus were seeded onto bsp-RGD(15)-modified IPNs at various cell densities over four orders of magnitude. […] 18(2):337-45 (2002)). Such spheres provide less precise control over the cellular microenvironment, due in part to spatial gradients in signaling and nutrients and internal necrosis.
For quantitative assays of proliferation, the NSCs were seeded at 1000 cells per well on various surfaces and grown for 3-6 days, and cell number was determined using a fluorescent dye that binds to nucleic acids, CyQUANT (Molecular Probes, Eugene, Oreg.). Briefly, cells grown on a particular surface for a fixed duration were washed once with phosphate buffer saline and lysed in the manufacturer's buffer with dye. Next, the fluorescent intensity of resulting solution was measured. […] Any increase in cell number on the negative control bsp-RGE(15)-modified IPNs reflected growth of weakly adherent neurospheres (FIG. 2d-e). About 10 pmol·cm^−2 bsp-RGD(15) was needed to support proliferation of NSCs, corresponding to ˜10^6 ligands per cell for the 10 μm diameter cells.

[2] = tested on: neural stem cells (NSCs) from adult hippocampus; test: NSC phenotype and differentiation on peptide-modified IPNs (qRT-PCR, immunofluorescent staining); format: cell-based, rat; settings: 1 μM retinoic acid with 5 μM forskolin
Procedure: Neural stem cells were isolated from the hippocampi of adult female Fischer 344 rats as previously described (Lai, K., et al., Nat Neurosci, 6(1):21-7 (2003)). Cells at (200-10,000 cells/well) were seeded onto peptide-modified IPNs and laminin-modified culture wells and incubated (37° C., 5% CO2) in serum-free media consisting of DMEM/Hams F-12 medium with N-2 supplement. These media conditions were supplemented with various soluble factors to modulate cell behavior: 20 ng·ml^-1 basic fibroblast growth factor (bFGF) for cell proliferation or 1 μM retinoic acid with 5 μM forskolin for neuronal differentiation. Wells were rinsed every 48 hrs with fresh media. […] To assay phenotype, two methods were used: quantitative real time PCR (qRT-PCR) and immunofluorescent staining. […] Quantitative real time PCR was used as a complementary technique to accurately quantify specific cDNA concentrations in various cDNA samples from cells grown on IPNs and laminin (using a Bio-Rad Laboratories iCycler). GFAP expression levels were quantified as a marker for astrocytic differentiation of the progenitor cells. β-Tubulin-III was used as a marker for neurons. […] The plasmids were linearized by restriction digest and quantified by absorbance, and tenfold serial dilutions from 1 ng/μL to 10^-9 ng/μL were prepared to generate a standard curve. […]

MMP-1 = biological target: T1, MMP-1 (Homo sapiens, UniProt P03956); settings: MMP-13 to MMP-1; cited from earlier work
T1 sequence (P03956 100-469): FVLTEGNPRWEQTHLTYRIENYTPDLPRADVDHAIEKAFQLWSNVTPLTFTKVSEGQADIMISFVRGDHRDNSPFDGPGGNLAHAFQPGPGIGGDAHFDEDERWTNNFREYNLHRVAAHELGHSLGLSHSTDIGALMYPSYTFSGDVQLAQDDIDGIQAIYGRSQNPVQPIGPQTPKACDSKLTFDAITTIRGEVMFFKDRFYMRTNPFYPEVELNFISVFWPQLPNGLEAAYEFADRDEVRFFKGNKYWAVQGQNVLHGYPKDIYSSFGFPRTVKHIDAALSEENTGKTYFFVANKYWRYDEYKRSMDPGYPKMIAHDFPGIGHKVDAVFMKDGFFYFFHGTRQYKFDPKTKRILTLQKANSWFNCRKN

MMP-9 = MMP-9 (Homo sapiens, UniProt P14780); settings: MMP-13 to MMP-9; cited from earlier work
Chain of MMP-9 (P14780 94-707, species assumed): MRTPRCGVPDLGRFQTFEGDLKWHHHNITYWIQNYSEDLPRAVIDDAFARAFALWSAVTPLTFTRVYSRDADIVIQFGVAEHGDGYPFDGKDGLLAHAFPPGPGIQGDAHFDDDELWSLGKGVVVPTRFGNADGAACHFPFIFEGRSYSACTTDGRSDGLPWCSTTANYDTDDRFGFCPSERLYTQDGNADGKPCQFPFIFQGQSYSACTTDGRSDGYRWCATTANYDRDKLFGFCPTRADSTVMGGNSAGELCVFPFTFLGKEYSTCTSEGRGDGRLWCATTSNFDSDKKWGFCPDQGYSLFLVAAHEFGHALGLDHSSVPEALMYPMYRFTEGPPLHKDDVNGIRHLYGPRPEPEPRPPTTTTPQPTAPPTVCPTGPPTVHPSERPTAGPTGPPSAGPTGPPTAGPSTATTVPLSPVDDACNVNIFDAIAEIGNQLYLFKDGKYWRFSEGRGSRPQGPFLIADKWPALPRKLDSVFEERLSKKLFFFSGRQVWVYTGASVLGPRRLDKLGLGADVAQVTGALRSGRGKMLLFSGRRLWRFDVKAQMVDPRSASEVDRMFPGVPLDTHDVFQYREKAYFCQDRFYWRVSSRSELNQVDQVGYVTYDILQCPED

MMP-3 = MMP-3 (Homo sapiens, UniProt P08254); settings: MMP-13 to MMP-3; cited from earlier work
Chain of MMP-3 (P08254 100-477, species assumed): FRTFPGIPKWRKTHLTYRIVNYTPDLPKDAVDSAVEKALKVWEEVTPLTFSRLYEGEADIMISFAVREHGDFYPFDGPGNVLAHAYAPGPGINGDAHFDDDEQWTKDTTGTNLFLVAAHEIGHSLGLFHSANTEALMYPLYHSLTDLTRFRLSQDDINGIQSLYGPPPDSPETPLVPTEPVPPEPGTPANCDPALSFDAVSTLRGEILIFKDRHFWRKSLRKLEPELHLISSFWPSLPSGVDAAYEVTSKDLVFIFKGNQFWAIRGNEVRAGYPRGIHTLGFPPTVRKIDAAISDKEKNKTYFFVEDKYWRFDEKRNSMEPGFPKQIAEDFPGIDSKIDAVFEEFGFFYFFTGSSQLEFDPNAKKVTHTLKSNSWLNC

Chain of αvβ3 integrin (P06756 31-889 limits assumed): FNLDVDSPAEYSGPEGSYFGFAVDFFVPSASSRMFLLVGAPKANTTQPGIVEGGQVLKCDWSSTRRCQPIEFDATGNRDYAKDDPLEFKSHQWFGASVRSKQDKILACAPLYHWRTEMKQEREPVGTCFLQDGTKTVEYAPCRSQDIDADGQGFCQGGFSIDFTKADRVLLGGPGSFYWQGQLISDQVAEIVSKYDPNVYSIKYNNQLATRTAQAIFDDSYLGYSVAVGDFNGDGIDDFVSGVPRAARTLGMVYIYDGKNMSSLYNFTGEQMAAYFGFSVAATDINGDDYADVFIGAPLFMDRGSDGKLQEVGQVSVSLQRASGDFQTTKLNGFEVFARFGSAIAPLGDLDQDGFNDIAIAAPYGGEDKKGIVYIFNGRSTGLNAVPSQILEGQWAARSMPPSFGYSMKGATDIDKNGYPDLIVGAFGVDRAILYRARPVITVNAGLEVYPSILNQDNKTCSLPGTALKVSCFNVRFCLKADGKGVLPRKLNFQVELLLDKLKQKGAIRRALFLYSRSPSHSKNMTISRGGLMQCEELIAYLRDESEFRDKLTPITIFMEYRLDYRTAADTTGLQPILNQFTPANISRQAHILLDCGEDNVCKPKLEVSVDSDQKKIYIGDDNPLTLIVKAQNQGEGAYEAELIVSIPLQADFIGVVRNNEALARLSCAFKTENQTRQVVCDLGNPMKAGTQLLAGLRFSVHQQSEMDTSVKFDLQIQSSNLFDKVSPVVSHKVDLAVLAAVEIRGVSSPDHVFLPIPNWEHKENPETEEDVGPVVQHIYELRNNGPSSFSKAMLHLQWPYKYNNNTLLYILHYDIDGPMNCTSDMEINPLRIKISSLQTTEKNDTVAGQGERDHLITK
Chain of αvβ3 integrin (P06756 891-1048 partner limits assumed): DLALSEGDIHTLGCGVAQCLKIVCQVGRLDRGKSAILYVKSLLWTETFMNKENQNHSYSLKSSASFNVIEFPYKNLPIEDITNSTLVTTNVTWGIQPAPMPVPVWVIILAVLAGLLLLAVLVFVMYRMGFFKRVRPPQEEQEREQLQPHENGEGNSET
Chain of αvβ3 integrin (P05106 27-788): as the sequence (P05106 27-788) above
Chain of αvβ5 integrin (P06756 31-889 limits assumed): as the sequence (P06756 31-889 limits assumed) above
Chain of αvβ5 integrin (P06756 891-1048 partner limits assumed): as the sequence (P06756 891-1048 partner limits assumed) above
Chain of αvβ5 integrin (P18084 24-799): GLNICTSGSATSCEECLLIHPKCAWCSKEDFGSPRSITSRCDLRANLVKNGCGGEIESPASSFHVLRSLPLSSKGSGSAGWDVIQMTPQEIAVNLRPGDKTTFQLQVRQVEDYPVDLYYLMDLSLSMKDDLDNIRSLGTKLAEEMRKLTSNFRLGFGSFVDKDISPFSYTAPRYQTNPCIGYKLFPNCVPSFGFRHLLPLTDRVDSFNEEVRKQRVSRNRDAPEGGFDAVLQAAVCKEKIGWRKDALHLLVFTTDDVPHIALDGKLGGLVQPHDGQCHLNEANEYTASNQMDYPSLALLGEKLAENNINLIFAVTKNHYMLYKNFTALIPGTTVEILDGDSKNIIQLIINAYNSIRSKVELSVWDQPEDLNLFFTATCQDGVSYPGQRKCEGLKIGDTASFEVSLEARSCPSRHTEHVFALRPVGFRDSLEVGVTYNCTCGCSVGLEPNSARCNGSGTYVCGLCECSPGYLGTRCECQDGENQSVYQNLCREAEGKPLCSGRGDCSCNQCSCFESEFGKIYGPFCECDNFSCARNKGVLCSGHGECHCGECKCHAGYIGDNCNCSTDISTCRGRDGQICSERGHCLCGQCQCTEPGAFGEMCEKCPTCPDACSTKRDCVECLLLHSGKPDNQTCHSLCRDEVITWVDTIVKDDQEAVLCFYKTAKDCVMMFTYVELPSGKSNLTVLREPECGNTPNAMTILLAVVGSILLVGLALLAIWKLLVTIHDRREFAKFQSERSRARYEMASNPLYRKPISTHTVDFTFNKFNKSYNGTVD

| Substance | Selectivity (kcat/Km ratio for MMP-13 to MMP-x), MMP-1 (MMP-1) | Selectivity (kcat/Km ratio for MMP-13 to MMP-x), MMP-9 (MMP-9) | Selectivity (kcat/Km ratio for MMP-13 to MMP-x), MMP-3 (MMP-3) | further results |
| --- | --- | --- | --- | --- |
| H-Glu[cyclo (Arg-Gly-Asp-D-Phe-Lys)]2 [bicyclic RGD peptide reported by Janssen et al] |  |  |  | IC50 (αvβ3 integrin): 0.9 nM; IC50 (αvβ5 integrin): 10 nM; IC50 (αIIBβ3 integrin): 10 nM |
| CSRARKQAASIKVAVSADR (lam-IKVAV(19) peptide) |  |  |  | NSC proliferation ([1]; proliferating media (bFGF)): did not enhance either cell proliferation or differentiation; NSC differentiation into neural lineages [2]: did not enhance either cell proliferation or differentiation |
| C3-16: literature MMP-13 peptide substrate, P4-P4' G P K G V Y S L (SEQ ID NO: 27) (GPKGVYSL; test peptide substrate) [Sample C3-16] | 5500 | 2.2 | 3600 |  |
| CGGNGEPRGDTYRAY (15-mer bone sialopeptide sequence; bsp-RGD(15)) |  |  |  | bsp-RGD(15) surface density needed to support proliferation of NSCs ([1]; grafted on IPN): About 10 pmol·cm^−2 |
| CGGNGEPRGETYRAY (bone sialopeptide sequence; bsp-RGE(15)) |  |  |  | NSC adhesion / attachment ([1]; proliferating or differentiating media conditions): did not support attachment |
| C2-22: literature MMP-13 peptide substrate, P4-P4' G P R P F N Y L (SEQ ID NO: 24) (GPRPFNYL; test peptide substrate) [Sample C2-22] | 180 | 21 | 7.9 |  |
| CP: literature MMP-13 peptide substrate, P4-P4' G P L G M R G L (SEQ ID NO: 23) (GPLGMRGL; test peptide substrate) | 820 | 11 | 1300 |  |
| C5-27: literature MMP-13 peptide substrate, P4-P4' G P F G F K S L (SEQ ID NO: 25) (GPFGFKSL; test peptide substrate) [Sample C5-27] | 2900 | 4.8 | 250 |  |
| C2-12P3A: literature MMP-13 peptide substrate, P4-P3' G A L G L S L (SEQ ID NO: 26) (GALGLSL; test peptide substrate) [Sample C2-12P3A] | 8.3 | 4.6 | 14 |  |
